Results taken from paper doi:10.1101/2023.10.05.561050 (bioRxiv, 2023).

Key:
Assay in all cases: PIE-FCCS
[1] = target: Myr-GCN4-FP (dimer control)
[2] = target: Myr-GCN4-EGFRk-FP (multimer control)
[3] = target: the molecule itself

Q: With Myr-GCN4-FP (dimer control) as the molecule, how does the fc (median cross-correlation value) [1] read?
A: The fc (median cross-correlation value) was 0.14.

Q: Which fc (median cross-correlation value) [2] does the source give for Myr-GCN4-EGFRk-FP (multimer control) here?
A: Its fc (median cross-correlation value) is 0.23.

B1: Myr-ICD-ΔS (EphA2 intracellular domain without the SAM domain, AA 559-882, with a membrane localization sequence) (domain or fragment)
chain: HRRRKNQRARQSPEDVYFSKSEQLKPLKTYVDPHTYEDPNQAVLKFTTEIHPSCVTRQKVIGAGEFGEVYKGMLKTSSGKKEVPVAIKTLKAGYTEKQRVDFLGEAGIMGQFSHHNIIRLEGVISKYKPMMIITEYMENGALDKFLREKDGEFSVLQLVGMLRGIAAGMKYLANMNYVHRDLAARNILVNSNLVCKVSDFGLSRVLEDDPEATYTTSGGKIPIRWTAPEAISYRKFTSASDVWSFGIVMWEVMTYGERPYWELSNHEVMKAINDGFRLPTPMDCPSAIYQLMMQCWQQERARRPKFADIVSILDKLIRAPDSLK
modifications: N-terminal myristoylation of the c-Src-derived peptide
Q: For B1, which “stoichiometry N” value [3] is on record?
A: The value was 2.
